What was measured:
[1] = substrate: O=C(O)C1=C[C@@H](O)[C@@H](O)[C@H](O)C1; test: cells, lysate or membranes; details: co-substrate p-coumaroyl-CoA, pH 7.0, 30 °C, crude extract
[2] = substrate: O=C(O)c1cccc(O)c1O; test: HPLC product assay, Michaelis-Menten fit; format: biochemical, Anthoceros agrestis; details: co-substrate p-coumaroyl-CoA, 30 °C, crude extract, ester formed
[3] = substrate: Nc1c(O)cccc1C(=O)O; test: HPLC product assay, Michaelis-Menten fit; format: biochemical, Anthoceros agrestis; details: co-substrate p-coumaroyl-CoA, pH 9.0, 30 °C, crude extract, amide formed, pH 9.0
[4] = substrate: CC(C)(COP(=O)(O)OP(=O)(O)OC[C@H]1O[C@@H](n2cnc3c(N)ncnc32)[C@H](O)[C@@H]1OP(=O)(O)O)[C@@H](O)C(=O)NCCC(=O)NCCSC(=O)/C=C/c1ccc(O)cc1; test: HPLC product assay, Michaelis-Menten fit; format: biochemical, Anthoceros agrestis; details: co-substrate shikimic acid, pH 7.0, 30 °C, crude extract, pH 7.0
[5] = substrate: CC(C)(COP(=O)(O)OP(=O)(O)OC[C@H]1O[C@@H](n2cnc3c(N)ncnc32)[C@H](O)[C@@H]1OP(=O)(O)O)[C@@H](O)C(=O)NCCC(=O)NCCSC(=O)/C=C/c1ccc(O)c(O)c1; test: HPLC product assay, Michaelis-Menten fit; format: biochemical, Anthoceros agrestis; details: co-substrate shikimic acid, pH 7.0, 30 °C, crude extract, pH 7.0
[6] = substrate: O=C(/C=C/c1ccc(O)cc1)NCCc1ccc(O)cc1; test: HPLC product assay, Michaelis-Menten fit; format: biochemical, Anthoceros agrestis; details: co-substrate NADPH, with Coleus blumei CPR, pH 7.0, 30 °C, crude extract
[7] = substrate: O=C(/C=C/c1ccc(O)cc1)Nc1ccccc1C(=O)O; test: HPLC product assay, Michaelis-Menten fit; format: biochemical, Anthoceros agrestis; details: co-substrate NADPH, with Coleus blumei CPR, pH 7.0, 30 °C, crude extract
[8] = substrate: O=C(/C=C/c1ccc(O)cc1)Nc1c(O)cccc1C(=O)O; test: HPLC product assay, Michaelis-Menten fit; format: biochemical, Anthoceros agrestis; details: co-substrate NADPH, with Coleus blumei CPR, pH 7.0, 30 °C, crude extract

Row | Protein | Km [1] | Km [2] | Km [3] | Km [4] | Km [5] | Km [6] | Km [7] | Km [8]
1 | AaHCT6 (Anthoceros agrestis) (protein) MKVSIKKETMVPPAEETPQVALWASNVDLIIPQIHTSSVYFYRPSGSPDFFSGDVLRDALAKALVPFYPMAGRLARDQDGRIQINCNAAGVLLVEAEADVSIDDLGGFAPHPVLQQLVPTVVYTKDITAFPLLVLQVTRFKCGGASLGVGMEHHIADGTSGIHFINTWSDVARGEGVKVLPFVDRTLLRARSPPTPQFEHVEYQTPFTLQPRFRPEEGSEKVETVVESFTFSREQLGKLKAMVADPGANLAYSSYVALSAHIWRCATRARGLSGDQPSKLFVATDGRARLRPPLPRGYFGNVIFTCTPVAEAEELVAKPLIRTAARIQEAVLKMGDEYLRSALDYLELLPDMSVCIRGAAHFGNPNLCITSWSGLPVYDCDFGWGRAIHMGPCQIGFEGLCFVLGSATKDGSLGLALRLRADHMADFRKLVNDI | 24.6 ± 10.4 µM | 1025.9 ± 59.7 µM | 153.1 ± 33.8 µM | 14.4 ± 1.4 µM | 19.2 ± 16.2 µM | – | – | –
2 | AaCYP98 (CYP98A147; coAaCYP98 + CbCPR) (Anthoceros agrestis) (protein, with NADPH--cytochrome P450 reductase (Coleus blumei)) MAELVVRAVLALIAVAVAAGFLFYRARWSRYKLPPGPKPRLFVGNLLDVTAVRFKCFEQWAKVYGPVMSVWMGATLNVVVSSAEGAKEVLKDKDQSLAARARSRAAAKFSRDGQDLIWADYGPHYVKVRKVCNVELFTPKRLEALRPIRQDEVSAMVHKIHRDAPKGPVNPKKYLSAMAFNNITRLAFGKRFVDDEGKIDSQGVEFKEVIGQGMKLGASLKISEHIPSIRWMFPLQNEEFAKHGARRDTLTRTIMKEHAALRETLGPQSHFVDALLGLQKQYDLSETTIIGLLWDMVTAGMDTVAITVEWALAELIRNPEVQRKAQEELDAVVGDETVLTEAHFSKLPYLTALTKESLRLHPPTPLMLPHKCTEDVKIQGYDIPKGTVVHCNIYVIARDPAVWKEPLAFRPERFLEQDVDIKGHDFRLLPFGAGRRVCPGAQLGLNMVQLMIGRLLHQFSWSPPEGVRAEDISLEERSGIVTYMAKSLEAVATPRLPQALYARNV | – | – | – | – | – | 36.3 ± 3.6 µM | 6.4 ± 0.8 µM | 9.3 ± 0.7 µM
